Experimental data taken from patent US20190046655A1 (ARBELE, published 2019).

Biological target: T1, cadherin-17 (CDH17), ELISA antigen (UniProt Q12864 23-787, limits assumed)
T1 construct: also called liver-intestine cadherin
Experiment: ELISA

| Binder | Kd [nM] |
| --- | --- |
| Lic3 scFv (scFv, V domains shown, Tested as a single-chain Fv; also called scFv lic 3; mouse CDH17 antibody Lic3 scFv) VH: EVQLVESGGGLVKPGGSLKLSCAASGFSFSDYYMYWVRQAPEKRLEWVASISFDGTYTYYTDRVKGRFTISRDNAKNNLYLQMSSLKSEDTAMYYCARDRPAWFPYWGQGTLVTVSA VL: DVLMTQIPLSLTVSLGDQASISCRSSQSIVHSNGNTYLEWYLQRPGQSPKLLIYKVSNRFSGVPDRFSGSGSGTDFTLKISRVEAEDLGVYYCFQGSHVPLTFGAGTKLELK | 11.9 |
| Lic5 scFv (scFv, V domains shown, Tested as a single-chain Fv; also called scFv lic5; mouse CDH17 antibody Lic5 scFv) VH: EVQLEESGGGLVKPGGSLKLPCAASGSSFSDFYMYWVRQTPEKRLEWVASISFDGTYTYYTDRVKGRFTISRDNAKNNLYLQMSSLKSEDTAMYYCARDRPAWFPYWGQGTLVTVSA VL: DIVLTQTTLSLNVSLGDQASISCRSSQSIVHSNGNTYLEWYLQRPGQSPKLLIYKVSNRFSGVPDRFSGSGSGTDFTLKISRVEAEDLGVYYCFQGSHVPLTFGAGTKLELKR | 22.1 |
